{"source": "patent US20240148884A1", "about": "(Scripps Research, published 2024)", "experiment_in_all_cases": "cell-based or functional assay", "key": {"human GIPR [1]": {"target": "T1, human GIPR (human, UniProt P48546 22-466)", "T1 sequence (looked up)": "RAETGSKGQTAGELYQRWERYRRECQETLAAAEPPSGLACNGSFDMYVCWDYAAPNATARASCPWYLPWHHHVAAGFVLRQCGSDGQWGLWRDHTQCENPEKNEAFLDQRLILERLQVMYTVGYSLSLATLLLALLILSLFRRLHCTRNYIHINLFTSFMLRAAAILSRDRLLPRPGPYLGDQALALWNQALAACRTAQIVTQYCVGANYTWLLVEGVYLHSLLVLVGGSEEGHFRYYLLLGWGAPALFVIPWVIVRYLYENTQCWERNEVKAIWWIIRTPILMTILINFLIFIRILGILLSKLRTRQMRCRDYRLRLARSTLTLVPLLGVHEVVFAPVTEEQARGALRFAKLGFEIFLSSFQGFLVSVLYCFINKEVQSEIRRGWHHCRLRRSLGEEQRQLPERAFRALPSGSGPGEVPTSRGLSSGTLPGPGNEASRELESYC"}, "human GIPR [2]": {"target": "T1, human GIPR", "remark": "listed apart in the source"}, "human GIPR [3]": {"target": "T1, human GIPR", "remark": "listed apart in the source"}, "cynomolgous monkey GLP1R": {"target": "cynomolgous monkey GLP1R (cynomolgous monkey)"}, "cynomolgous monkey GIPR": {"target": "cynomolgous monkey GIPR (cynomolgous monkey)"}, "human GLP-1R [4]": {"target": "T2, human GLP-1R (human, UniProt P43220 24-463)"}, "human GLP-1R [5]": {"target": "T2, human GLP-1R", "remark": "listed apart in the source"}, "human GIPR [6]": {"target": "T1, human GIPR", "remark": "listed apart in the source"}, "human GIPR [7]": {"target": "T1, human GIPR", "remark": "listed apart in the source"}, "human GLP-1R [8]": {"target": "T2, human GLP-1R", "remark": "listed apart in the source"}, "human GLP-1R [9]": {"target": "T2, human GLP-1R", "remark": "listed apart in the source"}, "mouse GLP1R": {"target": "T3, mouse GLP1R (mouse, UniProt O35659 22-463, limits assumed)", "T3 sequence (looked up)": "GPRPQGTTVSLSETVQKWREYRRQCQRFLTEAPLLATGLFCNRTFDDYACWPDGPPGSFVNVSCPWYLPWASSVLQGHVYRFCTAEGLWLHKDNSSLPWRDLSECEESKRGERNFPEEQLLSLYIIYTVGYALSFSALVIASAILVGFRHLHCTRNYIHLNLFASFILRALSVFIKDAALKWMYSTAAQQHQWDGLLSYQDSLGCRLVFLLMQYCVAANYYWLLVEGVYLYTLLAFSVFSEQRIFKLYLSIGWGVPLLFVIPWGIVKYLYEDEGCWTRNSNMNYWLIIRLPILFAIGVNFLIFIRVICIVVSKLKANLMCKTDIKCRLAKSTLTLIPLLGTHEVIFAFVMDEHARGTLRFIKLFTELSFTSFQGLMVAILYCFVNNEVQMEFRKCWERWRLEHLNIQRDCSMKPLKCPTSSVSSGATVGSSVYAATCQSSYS"}}, "note": "Read-outs that look alike come from different tables or passages of the source. Bridge positions count the residues as written; N and C are the ends. Square brackets hold non-standard residues; d marks the D form. Ends that are not written are not given here. C20L5A staple = not defined here; L5A(S) staple = not defined here; C20L5A = not defined here; L5A = not defined here; Aib = CC(C)(N)C(=O)O", "data": [{"binder": "Y[Aib]EGTFTSDYSIYCDKQAA[Aib]CFVNWLLAGGPSSGAPPPS-NH2 (linker 14-21 via C20L5A staple; reading uncertain)", "note": "[C(14-21)-C20L5A]", "values": [{"measurement": "EC50 of receptor-mediated cAMP synthesis (average)", "setting": "human GIPR [1]", "value": 50, "unit": "pM"}, {"measurement": "EC50 of receptor-mediated cAMP synthesis", "setting": "human GIPR [2]", "value": 50, "unit": "pM"}]}, {"binder": "YXEGTFTSDYSIYLDKCAAXEFVCWLIAGGPSSGAPPPS (Aib at positions 2 and 20; C-terminal amide (NH2); staple C20L5A attached at Cys17 and Cys24)", "note": "[mCMV268 (27I, C(17-24)-C20L5A)]", "values": [{"measurement": "EC50 of receptor-mediated cAMP synthesis (02/19)", "setting": "human GIPR [1]", "value": 50, "unit": "pM"}, {"measurement": "In Vitro Potency GIPR EC50 [nM], 10% FBS", "setting": "human GIPR [3]", "value": 0.09, "unit": "nM"}, {"measurement": "In Vitro Potency GIPR EC50 [nM], No Serum", "setting": "human GIPR [3]", "value": 0.01, "unit": "nM"}, {"measurement": "In Vitro Potency GLP1R EC50 [nM], Cyno", "setting": "cynomolgous monkey GLP1R", "value": 0.22, "unit": "nM"}, {"measurement": "In Vitro Potency GIPR EC50 [nM], Cyno", "setting": "cynomolgous monkey GIPR", "value": 0.16, "unit": "nM"}]}, {"binder": "Y[Aib]EGTYTSDYSIYLDKCAA[Aib]EFVCWLIAGGPSSGAPPPS-NH2 (linker 17-24 via C20L5A; reading uncertain)", "note": "[6Y, 27I, C(17-24)-C20L5A]", "values": [{"measurement": "EC50 of receptor-mediated cAMP synthesis (02/19)", "setting": "human GLP-1R [4]", "value": 50, "unit": "pM"}]}, {"binder": "YXEGTFTSDYSIYKDKQAAXKFVNWLLAGGPSSGAPPPS (Aib at positions 2 and 20; C-terminal amide (NH2); staple K5 attached at Lys14 and Lys21)", "note": "[mCLZ715]", "values": [{"measurement": "EC50 of receptor-mediated cAMP synthesis", "setting": "human GLP-1R [5]", "value": 20, "unit": "pM"}, {"measurement": "EC50 of receptor-mediated cAMP synthesis", "setting": "human GIPR [6]", "value": 20, "unit": "pM"}]}, {"binder": "YXEGTFTSDYSIYCDKQAAXCFVNWLLAGGPSSGAPPPS (Aib at positions 2 and 20; C-terminal amide (NH2); staple L5A attached at Cys14 and Cys21)", "note": "[mCMC759 (C(14-21)-L5A)]", "values": [{"measurement": "EC50 of receptor-mediated cAMP synthesis", "setting": "human GIPR [7]", "value": 30, "unit": "pM"}, {"measurement": "EC50 of receptor-mediated cAMP synthesis", "setting": "human GIPR [2]", "value": 30, "unit": "pM"}]}, {"binder": "YXEGTFTSDYSIYKDKQAAXKFVNWLLAGGPSSGAPPPS (Aib at positions 2 and 20; C-terminal amide (NH2); staple K4 attached at Lys14 and Lys21)", "note": "[mCMD307 (2050-K4)]", "values": [{"measurement": "EC50 of receptor-mediated cAMP synthesis (02/19)", "setting": "human GLP-1R [4]", "value": 10, "unit": "pM"}, {"measurement": "EC50 of receptor-mediated cAMP synthesis (3/25)", "setting": "human GLP-1R [4]", "value": 10, "unit": "pM"}, {"measurement": "EC50 of receptor-mediated cAMP synthesis (03/26)", "setting": "human GLP-1R [4]", "value": 10, "unit": "pM"}, {"measurement": "EC50 of receptor-mediated cAMP synthesis (average)", "setting": "human GLP-1R [4]", "value": 10, "unit": "pM"}, {"measurement": "EC50 of receptor-mediated cAMP synthesis (03/25)", "setting": "human GIPR [1]", "value": 10, "unit": "pM"}, {"measurement": "EC50 of receptor-mediated cAMP synthesis (03/26)", "setting": "human GIPR [1]", "value": 10, "unit": "pM"}, {"measurement": "EC50 of receptor-mediated cAMP synthesis (average)", "setting": "human GIPR [1]", "value": 20, "unit": "pM"}, {"measurement": "EC50 of receptor-mediated cAMP synthesis", "setting": "human GLP-1R [8]", "value": 30, "unit": "pM"}, {"measurement": "EC50 of receptor-mediated cAMP synthesis", "setting": "human GIPR [7]", "value": 10, "unit": "pM"}, {"measurement": "EC50 of receptor-mediated cAMP synthesis", "setting": "human GLP-1R [5]", "value": 10, "unit": "pM"}, {"measurement": "EC50 of receptor-mediated cAMP synthesis", "setting": "human GIPR [6]", "value": 20, "unit": "pM"}, {"measurement": "EC50 of receptor-mediated cAMP synthesis", "setting": "human GLP-1R [9]", "value": 30, "unit": "pM"}, {"measurement": "EC50 of receptor-mediated cAMP synthesis", "setting": "human GIPR [2]", "value": 10, "unit": "pM"}]}, {"binder": "YXEGTFTSDYSIYCDKQAAXCFVNWLIAGGPSSGAPPPS (Aib at positions 2 and 20; C-terminal amide (NH2); staple C20L5A attached at Cys14 and Cys21)", "note": "[mCMV266 (27I, C(14-21)-C20L5A)]", "values": [{"measurement": "EC50 of receptor-mediated cAMP synthesis (02/19)", "setting": "human GLP-1R [4]", "value": 30, "unit": "pM"}, {"measurement": "EC50 of receptor-mediated cAMP synthesis (3/25)", "setting": "human GLP-1R [4]", "value": 50, "unit": "pM"}, {"measurement": "EC50 of receptor-mediated cAMP synthesis (average)", "setting": "human GLP-1R [4]", "value": 50, "unit": "pM"}, {"measurement": "EC50 of receptor-mediated cAMP synthesis", "setting": "human GLP-1R [9]", "value": 50, "unit": "pM"}]}, {"binder": "Y[Aib]EGTFTSDYSIYLDKCAA[Aib]EFVCWLLAGGPSSGAPPPS-NH2 (linker 17-24 via L5A; reading uncertain)", "note": "[C(17-24)-L5A]", "values": [{"measurement": "EC50 of receptor-mediated cAMP synthesis", "setting": "human GIPR [7]", "value": 50, "unit": "pM"}]}, {"binder": "Y[Aib]EGTFTSDYSIYLDKCAQ[Aib]AFVCWLIAQGPSSGAPPPS-NH2 (linker 17-24 via C20L5A; reading uncertain)", "note": "[19Q, 21A, 27I, 29Q, C(17-24) - C20L5A]", "values": [{"measurement": "EC50 of receptor-mediated cAMP synthesis", "setting": "human GIPR [7]", "value": 20, "unit": "pM"}]}, {"binder": "Y[Aib]EGTFTSDYSIYLDKCAA[Aib]EFVCWLLAGGPSSGAPPPS-NH2 (linker 17-24 via C20L5A; reading uncertain)", "note": "[C(17-24)-C20L5A]", "values": [{"measurement": "EC50 of receptor-mediated cAMP synthesis (3/25)", "setting": "human GLP-1R [4]", "value": 100, "unit": "pM"}, {"measurement": "EC50 of receptor-mediated cAMP synthesis (03/26)", "setting": "human GLP-1R [4]", "value": 90, "unit": "pM"}, {"measurement": "EC50 of receptor-mediated cAMP synthesis (average)", "setting": "human GLP-1R [4]", "value": 90, "unit": "pM"}, {"measurement": "EC50 of receptor-mediated cAMP synthesis (03/25)", "setting": "human GIPR [1]", "value": 20, "unit": "pM"}, {"measurement": "EC50 of receptor-mediated cAMP synthesis (03/26)", "setting": "human GIPR [1]", "value": 30, "unit": "pM"}, {"measurement": "EC50 of receptor-mediated cAMP synthesis (average)", "setting": "human GIPR [1]", "value": 30, "unit": "pM"}, {"measurement": "EC50 of receptor-mediated cAMP synthesis", "setting": "human GIPR [7]", "value": 50, "unit": "pM"}]}, {"binder": "Y[Aib]EGTFTSDYSIYLDKCAA[Aib]EFVCWLIAGGPSSGAPPPS-NH2 (linker 17-24 via L5A(S) staple; reading uncertain)", "note": "[mCMZ371 (C(17-24)-L5A(S))]", "values": [{"measurement": "In Vitro Potency GIPR EC50 [nM], No Serum", "setting": "human GIPR [3]", "value": 0.01, "unit": "nM"}, {"measurement": "In Vitro Potency GLP1R EC50 [nM], Mouse", "setting": "mouse GLP1R", "value": 0.09, "unit": "nM"}, {"measurement": "In Vitro Potency GLP1R EC50 [nM], Cyno", "setting": "cynomolgous monkey GLP1R", "value": 0.11, "unit": "nM"}]}, {"binder": "Y[Aib]EGTFTSDYSIYCDKQAA[Aib]CFVNWLIAGGPSSGAPPPS-NH2 (linker 14-21 via L5A; reading uncertain)", "note": "[27I, C(14-21)-L5A]", "values": [{"measurement": "EC50 of receptor-mediated cAMP synthesis", "setting": "human GIPR [2]", "value": 30, "unit": "pM"}]}]}
